Numbering of substitutions follows the chain as printed.
Assays:
[1] = biological target: T1, human IGSF11 (VSIG3) ECD, His-tagged (human, UniProt Q5DX21 23-241); experiment: blocking ELISA: VSIR-Fc immobilised, IgG dilution series pre-incubated with 200 nM IGSF11 ECD-His, bound IGSF11 detected with anti-His-HRP
T1 construct: in part bought (SinoBiological 13094-H08H); also called HIS-IGSF11; IGSF11-HIS; not shown: His tag
T1 sequence: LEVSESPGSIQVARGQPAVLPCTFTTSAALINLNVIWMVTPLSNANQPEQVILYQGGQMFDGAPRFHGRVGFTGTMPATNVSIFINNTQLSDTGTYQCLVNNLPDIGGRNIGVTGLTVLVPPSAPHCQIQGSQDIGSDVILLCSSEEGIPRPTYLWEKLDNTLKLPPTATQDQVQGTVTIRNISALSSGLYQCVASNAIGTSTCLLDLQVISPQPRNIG

[2] = biological target: T1, human IGSF11 (VSIG3) ECD, His-tagged; experiment: ELISA: IGSF11-HIS coated, IgG1 dilution series, anti-human antibody-HRP, TMB
[3] = biological target: T1, human IGSF11 (VSIG3) ECD, His-tagged; experiment: IgG1 ELISA EC50 0.05-1 nM
[4] = biological target: T2, extracellular domain (ECD) of human IGSF11 (VSIG3), recombinant (human, UniProt Q5DX21 23-241); experiment: SPR
T2 construct: biotinylated where captured on streptavidin; tags of the reagent not always stated; also called IGSF11 (ECD domain); ECD-IGSF11
T2 sequence: T1 sequence

[5] = biological target: T3, murine IGSF11 expressed on cells (mouse, UniProt P0C673 23-428); experiment: IgG FACS CT26-IGSF11
T3 construct: MC38-IGSF11, CT26-IGSF11, MC38-wt (naturally expresses murine IGSF11)
T3 sequence: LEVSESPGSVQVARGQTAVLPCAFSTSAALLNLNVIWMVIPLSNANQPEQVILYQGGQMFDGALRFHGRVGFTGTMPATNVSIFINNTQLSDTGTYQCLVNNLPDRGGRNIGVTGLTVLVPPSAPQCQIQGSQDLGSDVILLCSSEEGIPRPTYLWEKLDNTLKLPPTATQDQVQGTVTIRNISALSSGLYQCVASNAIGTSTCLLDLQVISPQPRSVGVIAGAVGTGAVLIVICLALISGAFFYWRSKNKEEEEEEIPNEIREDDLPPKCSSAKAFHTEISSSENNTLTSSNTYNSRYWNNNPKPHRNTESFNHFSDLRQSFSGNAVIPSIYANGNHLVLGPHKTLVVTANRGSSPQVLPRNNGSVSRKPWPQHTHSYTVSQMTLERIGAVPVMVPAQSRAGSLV
Text: (§1) Unbound antibodies were removed by washing the cells three time with FACS buffer. Bound antibodies were detected with a mouse anti-human IgG antibody conjugated with AlexaFluor647.

[6] = biological target: T3, murine IGSF11 expressed on cells; experiment: IgG FACS MC38-IGSF11
Text: as §1

[7] = biological target: T1, human IGSF11 (VSIG3) ECD, His-tagged; experiment: IgG1 ELISA EC50 0.02-0.05 nM
[8] = biological target: T4, IgC2 domain of human IGSF11 fused to murine IgG2a Fc (human, UniProt Q5DX21 137-241); experiment: IgG ELISA
T4 construct: not shown: murine IgG2a Fc-region
T4 sequence: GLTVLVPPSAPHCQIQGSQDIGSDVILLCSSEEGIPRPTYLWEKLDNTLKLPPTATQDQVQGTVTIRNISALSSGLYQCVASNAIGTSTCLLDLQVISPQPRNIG

[9] = biological target: T5, full-length ECD of human IGSF11 fused to murine Fc (human, UniProt Q5DX21 23-241); experiment: IgG ELISA
T5 construct: also called Fc-fusion IGSF11 ECD; not shown: murine Fc
T5 sequence: T1 sequence

[10] = biological target: T6, human IGSF11 (VSIG3) expressed on cells (human, UniProt Q5DX21 23-431); experiment: IgG1 FACS HEK-OE
T6 sequence: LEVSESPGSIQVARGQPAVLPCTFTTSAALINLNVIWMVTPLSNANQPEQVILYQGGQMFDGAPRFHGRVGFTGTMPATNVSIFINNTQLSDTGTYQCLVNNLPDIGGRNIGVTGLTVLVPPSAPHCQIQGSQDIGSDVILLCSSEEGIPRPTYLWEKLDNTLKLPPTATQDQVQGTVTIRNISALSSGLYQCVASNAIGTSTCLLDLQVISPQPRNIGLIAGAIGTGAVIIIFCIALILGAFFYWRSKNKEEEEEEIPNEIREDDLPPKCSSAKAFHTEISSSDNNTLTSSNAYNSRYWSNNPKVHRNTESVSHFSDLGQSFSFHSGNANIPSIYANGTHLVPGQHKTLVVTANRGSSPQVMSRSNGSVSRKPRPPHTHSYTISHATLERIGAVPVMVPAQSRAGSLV

[11] = biological target: T6, human IGSF11 (VSIG3) expressed on cells; experiment: FACS, DMS 273 cells with scrambled control siRNA (SC)
[12] = biological target: T6, human IGSF11 (VSIG3) expressed on cells; experiment: FACS, M579-A2-luc cells with scrambled control siRNA (SC)
[13] = biological target: T6, human IGSF11 (VSIG3) expressed on cells; experiment: FACS, M579-A2-luc cells with IGSF11 siRNA (KD, knock-down control)
[14] = biological target: T6, human IGSF11 (VSIG3) expressed on cells; experiment: FACS, DMS 273 cells with IGSF11 siRNA (KD, knock-down control)
[15] = biological target: T6, human IGSF11 (VSIG3) expressed on cells; experiment: IgG1 FACS DMS 273
[16] = biological target: T1, human IGSF11 (VSIG3) ECD, His-tagged; experiment: IgG1 ELISA EC50 <0.02 nM

B1: B-004 (chain-swapped IgG1) (antibody, V domains shown)
VH: EVQLLESGGGLIQPGGSLRLSCAVSGFTVSSNYMSWVRQAPGKGLEWVSVIYSGGSTYYADSVKGRFTISRDNSKNTLYLQMNSLRAEDTAVYYCARGNPYYYGDLQVNFDYWGQGTLVTVSS
VL: QAVVTQEPSLTVSPGGTVTLTCASSTGAVTSGYYPNWFQQKPGQAPRPLIYSTSNKHSWTPARFSGSLLGGKAALTLSGVQPDDEAEYYCLLYYGGDWVFGGGTKLTVL
notes: human IgG1 format; also called B4
With B1 the “IC50 (read off the curve)” value [1] was about 5 nM and the “EC50 (read off the curve)” value [2] was about 0.02 nM.

B2: B-007 (chain-swapped IgG1) (antibody, V domains shown)
VH: B1 VH with L5V, V24A
VL: B1 VL with G32A, P48A, D83E, E87D, D97A
notes: human IgG1 format; also called B7
B2 was tested, and the “IC50 (read off the curve)” value [1] was about 3 nM and the “EC50 (read off the curve)” value [2] was about 0.01 nM.

B3: B-008 (chain-swapped IgG1) (antibody, V domains shown)
VH: B1 VH with L5V, V24A
VL: B1 VL with L20P, A23G, Y33N, Y34L, P48A, F64I, D83E, D97A
notes: human IgG1 format; also called B8
For B3, the “IC50 (read off the curve)” value [1] was about 4 nM.

B4: B-006 (chain-swapped IgG1) (antibody, V domains shown)
VH: B1 VH with L5V, V24A
VL: B1 VL with G16E, K41R, P48A, H57D, D83E, D97A
notes: human IgG1 format; also called B6
For B4, the “IC50 (read off the curve)” value [1] was about 5 nM and the “EC50 (read off the curve)” value [2] was about 0.02 nM.

B5: A-034 (IgG1 format) (antibody, V domains shown)
VH: QMQLVQSGGGLVKPGGSLRLSCAASGFTFSSYTMNWVRQAPGKGLEWVSSISSIGTYIYYADSVKGRFTISRDNAKNSLYLQMNSLRAEDTAVYYCARVLLSGSYYGYFDSWGQGTLVTVSS
VL: QSVLTQPPSVSGAPGQRVTISCTGSSSNIGAGYDVHWYQQLPGTAPKLFIYGNSNRPSGVPDRFSGSKSGTSASLAITGLQAEDEADYYCQSYDSSLSGYVFGTGTKVTVL
notes: human IgG1 format
B5 gave an EC50 [3] of 0.05 to 1 nM and a Kd [4] of 250 to 500 nM.

B6: C-016 (IgG1 format) (antibody, V domains shown)
VH: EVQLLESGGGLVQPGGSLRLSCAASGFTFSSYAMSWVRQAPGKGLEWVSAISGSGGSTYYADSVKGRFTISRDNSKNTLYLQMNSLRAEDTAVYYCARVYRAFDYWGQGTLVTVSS
VL: ASVLTQPPSVSAAPGQKVTISCSGSSSNIGNNYVSWYQQLPGTAPKLLIYDNNKRPSGIPDRFSGSKSGTSATLGITGLQAEDEADYYCHLYTEAESHWVFGGGTKLTVL
B6 showed an EC50 [5] of 20 to 50 nM and an EC50 [6] of 50 to 100 nM.

B7: A-029 (IgG1 format) (antibody, V domains shown)
VH: QVQLVQSGAEVKKPGSSVKVSCKASGGTFSSYAISWVRQAPGQGLEWMGGIIPIFGTANYAQKFQGRVTITADESTGTAYMELSSLRSEDTAVYYCARSYYYYYGMDVWGQGTTVTVSS
VL: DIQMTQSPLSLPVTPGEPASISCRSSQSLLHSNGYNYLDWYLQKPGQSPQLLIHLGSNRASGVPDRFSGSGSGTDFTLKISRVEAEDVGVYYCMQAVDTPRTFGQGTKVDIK
notes: human IgG1 format
B7 showed an EC50 [3] of 0.05 to 1 nM.

B8: A-003 (IgG1 format) (antibody, V domains shown)
VH: VQLVQSGAEVKKPGSSVKVSCKASGGTFSSYAISWVRQAPGQGLEWMGGIIPIFGTANYAQKFQGRVTITADESTSTAYMELSSLRSEDTAVYYCASPRIQLWAAGGFDYWGQGTLVTVSS
VL: QSALTQPASVSGSPGQSITISCTGTSSDVGGYNLVSWYQQHPGKAPKLMIYDVSNRPSGVSNRFSGSKSGNTASLTISGLQAEDEADYYCSSFTTSTTLVFGGGTKLTVL
notes: human IgG1 format
Work on B8 yielded an EC50 [3] of 0.05 to 1 nM.

B9: A-023 (IgG1 format) (antibody, V domains shown)
VH: QVQLVQSGAEVKKPGSSVKVSCKASGGTFSSYAISWVRQAPGQGLEWMGGIIPIFGTANYAQKFQGRVTITADESTSTAYMELSSLRSEDTAVYYCARPKYSSGWFYYYGMDVWGQGTTVTVSS
VL: QSVLTQPPSVSAAPGQKVTISCSGSSSNIGNNYVSWYQQLPGTAPKLLIYDNNKRPSGIPDRFSGSKSGTSATLGITGLQTGDEADYYCGTWDSSLSVVFGGGTKLTVL
notes: human IgG1 format
Binder B9 has an EC50 [3] of 0.05 to 1 nM.

B10: A-035 (IgG1 format) (antibody, V domains shown)
VH: QVQLVQSGAEVKKPGASVKVSCKASGYTFTGYYMHWVRQAPGQGLEWMGWINPNSGNTGYAQKFQGRVTMTRNTSISTAYMELSSLRSEDTAVYYCARGRLERGYWYFDLWGRGTLVTVSS
VL: NFMLTQPHSVSESPGRTVTISCTRSSGSITSNYVQWYQQRPGSAPTILIYEDKERPSEVPDRFSGSIDISSNSASLTISGLKTEDEADYYCQSYGGTSQGVLFGGGTKVTVL
notes: human IgG1 format
B10 was tested, and the EC50 [7] was 0.02 to 0.05 nM, the EC50 [8] was 20 to 100 nM and the EC50 [9] was 1 to 20 nM. It also gave an EC50 [10] of over 50 nM.

B11: A-025 (IgG1 format) (antibody, V domains shown)
VH: QVQLVQSGAEVKKPGSSVKVSCKASGGTFSSYAISWVRQAPGQGLEWMGGIIPIFGTANYAQKFQGRVTITADESTSTAYMELTSLRSEDTAVYYCARGGWLRQNWFDPWGQGTLVTVSS
VL: SSELTQDPAVSVALGQTVRITCQGDSLRSYYASWYQQKPGQAPVLVIYGKNNRPSGIPDRFSGSSSGNTASLTITGAQAEDEADYYCNSRDSSGNHPRVFGGGTKLTVL
notes: human IgG1 format
B11 showed an EC50 [3] of 0.05 to 1 nM.

B12: A-027 (IgG1 format) (antibody, V domains shown)
VH: QVQLVQSGAEVKKPGSSVKVSCKASGGTFSSYAISWVRQAPGQGLEWMGGIIPIFGTANYAQKFQGRVTITADKSTSTAYMELSSLRSEDTAVYYCARARGSTWGYFDYWGQGTLVTVSS
VL: EIVLTQSPASLSLSPGERVTLSCRASQSVSNYLAWYQQKPGQAPRLLIYDASNRATGIPARFSGSGSGTDFTLTISSLEPEDFAVYYCQQRDNWPLTFGGGTKVEIK
notes: human IgG1 format
With B12 the EC50 [8] was 1 to 20 nM, the EC50 [9] was 1 to 20 nM and the “% binding (FACS heat-map)” value [11] was 14.3%. The “% binding (FACS heat-map)” value [12] was 3.32%, the EC50 [10] was over 50 nM and the “% binding (FACS heat-map)” value [13] was 2.5%. For the same binder, the “% binding (FACS heat-map)” value [14] was 2.63%.

B13: A-009 (IgG1 format) (antibody, V domains shown)
VH: B12 VH with K74E, A99G, S102F, T103G, W104E, G105L
VL: ETTLTQSPATLSVSPGERATLSCRASQGVRSNIAWYQQKPGQAPRLLIYDSSTRATGIPARFSGSGSGTEFTLTISSLQSEDFAVYSCQQYKNWPRTFGQGTKVEIK
notes: human IgG1 format
Binder B13 has an EC50 [3] of 0.05 to 1 nM.

B14: A-022 (IgG1 format) (antibody, V domains shown)
VH: EVQLLESGPGLVKPSQTLSLTCTVSGGSISSGGYYWSWIRQHPGKGLEWIGYIYYSGSTYYNPSLKSRVTISVDTSKNQFSLKLSSVTAADTAVYYCARASRSTDYYFDYWGQGTLVTVSS
VL: QPGLTQPPSMSYGLGQTATLTCTGNRNNIGDQGAAWLQQHQGHPPKLLSYRNNNGPSGISERLSASRSGNTASLTISGLQPEDEADYYCSAWDSSLRAWVFGGGTKLTVL
notes: human IgG1 format
Work on B14 yielded an EC50 [8] of under 1 nM, an EC50 [9] of under 1 nM and an EC50 [15] of 10 to 50 nM. The EC50 [10] was 10 to 50 nM and the EC50 [16] was under 0.02 nM.
